Reference: patent publication US20260217849A1 (SHANGHAI HUAOTA BIOPHARMACEUTICAL, published 2026)
Blank lines part the entries; values can stand above or below the binder they belong to.

Columns and labels:
[1] = molecular target: T1, human CD73 antigen protein (ACRO Biosystems, Catalog No. CD3-H52H7) (human, UniProt P21589 27-547); experiment: SPR BIAcore 8k, CD73 captured as ligand, analyte 1 buffer, analyte 2 900698
T1 construct: Bought protein; also called Human CD73 dimer protein; human CD73 protein
T1 sequence (looked up): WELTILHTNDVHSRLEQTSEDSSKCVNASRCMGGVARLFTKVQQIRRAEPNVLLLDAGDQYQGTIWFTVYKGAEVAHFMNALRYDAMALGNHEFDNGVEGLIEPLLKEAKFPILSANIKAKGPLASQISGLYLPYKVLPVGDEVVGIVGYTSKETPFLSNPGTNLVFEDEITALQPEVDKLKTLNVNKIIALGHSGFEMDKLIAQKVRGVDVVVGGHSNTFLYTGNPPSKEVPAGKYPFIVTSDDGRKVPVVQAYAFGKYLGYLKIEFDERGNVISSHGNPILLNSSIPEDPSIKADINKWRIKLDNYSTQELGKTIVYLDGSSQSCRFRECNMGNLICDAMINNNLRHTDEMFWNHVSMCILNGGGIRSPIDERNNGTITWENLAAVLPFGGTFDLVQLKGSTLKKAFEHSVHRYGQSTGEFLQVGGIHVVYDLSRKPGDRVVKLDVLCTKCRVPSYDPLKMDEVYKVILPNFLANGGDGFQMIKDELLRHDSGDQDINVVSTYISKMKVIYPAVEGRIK
Excerpt: (§1) First, the human CD73 antigen protein (manufacturer: ACRO Biosystems, Catalog No. CD3-H52H7) was captured as a ligand using BIAcore 8k, and then the antibodies were used as analytes.

[2] = molecular target: T1, human CD73 antigen protein (ACRO …); experiment: SPR BIAcore 8k, CD73 captured as ligand, 900725 added first (competitor), then 900698
Excerpt: as §1

[3] = molecular target: T1, human CD73 antigen protein (ACRO …); experiment: SPR BIAcore 8k, CD73 captured as ligand, analyte 1 buffer, analyte 2 900725
Excerpt: as §1

[4] = molecular target: T1, human CD73 antigen protein (ACRO …); experiment: SPR BIAcore 8k, CD73 captured as ligand, 900698 added first (competitor), then 900725
Excerpt: as §1

Kd [1]: 7.3 nM | koff [1]: 0.00114 s⁻¹ | kon [1]: 156000 M⁻¹ s⁻¹ | Kd [2]: 12.6 nM | koff [2]: 0.0017 s⁻¹ | kon [2]: 135000 M⁻¹ s⁻¹
B1: 900698 (antibody, human IgG1, kappa, L234A L235A, V domains shown)
VH: QVQLVESGGGLVKPGGSLRLSCAASGFTFSKYAMSWIRQAPGKGLEWVAEISSGGGYINYADSVKGRFTISRDNAKNSLYLQMNSLRAEDTAVYYCARAIYYYGSSYNYYAMDYWGQGTTVTVSS
VL: DIQMTQSPSSLSASVGDRVTITCRASQDVGTAEAWYQQKPGKAPKLLIYWASTRHTGVPSRFSGSGSGTDFTLTISSLQPEDFATYYCQQYSSYPLTFGQGTKLEIKR
notes: also called component of the anti-CD73 cocktail antibody

Kd [3]: 3.01 nM | koff [3]: 0.00452 s⁻¹ | kon [3]: 1.5e+06 M⁻¹ s⁻¹ | Kd [4]: 4.16 nM | koff [4]: 0.00591 s⁻¹ | kon [4]: 1.42e+06 M⁻¹ s⁻¹
B2: 900725 (antibody, human IgG1, kappa, L234A L235A, V domains shown)
VH: QVQLVQSGAEVKKPGASVKLSCKASGYTFTSYWIHWVRQAPGQGLEWIGMIHPNSGSTYYNEKFKGRATLTVDKSTSTAYMELSSLRSEDTAVYYCARYYGSDYEWYFDVWGQGTTVTVSS
VL: DIQMTQSPSSMSASVGDRVTITCKASQNVRTAVVWYQQKPGKAPKALIYLASNRHTGVPDRFSGSGSGTDFTLTISSLQPEDFATYFCLQHWNYPYTFGQGTKLEIKR
notes: as for B1
